Data: paper PMC12732657

What was measured:
[1] = target: Bovine pancreatic β-trypsin (bovine); assay: ITC; CVTI (200 µM) injected in 2.02 µL steps into 170 µL cell with bovine trypsin (20 µM); 50 mM Tris pH 7.8, 150 mM NaCl; Nano ITC
[2] = target: Bovine pancreatic β-trypsin (bovine)

Substance: Cleome viscosa trypsin inhibitor (natural protein)
- Ka [1]: 513000 M⁻¹
- Kd [1]: 1.95 µM
- dH [1]: 76.8 kcal/mol
- stoichiometry N [1]: 1.1
- Vmax of caseinolysis by trypsin (5 µM) in the presence of CVTI (15 µM); 20.23 µM/min without CVTI [2]: 16.7 µM/min
